In US20180057591A1 (Eli Lilly, published 2018):
Positions count from the first letter of the chain named. Values belong to the binder of their own block, whether it stands above or below them.

Columns and labels:
[1] = target: T1, human Tim-3-IgV-Fc single arm antigen (SAG) (human, UniProt Q8TDQ0 22-130); assay: SPR, Biacore T100, antibody captured by Human Fab Binder, Tim-3 SAG as analyte, 1:1 Langmuir with mass transport
T1 construct: Single arm format: the second (Fc only) chain is not described; also called Tim-3 SAG; not shown: Fc part

[2] = target: T2, human Tim-3-Fc (R&D Systems) (human, UniProt Q8TDQ0 22-130, biotinylated in the phosphatidylserine assay; ruthenylated (sulfo-tag NHS-ester) in the galectin-9 assay); assay: flow cytometry, blocking of biotinylated hTIM-3-Fc binding to phosphatidylserine on camptothecin-treated DO11.10 cells; blocking of hTIM-3-Fc Biotin binding to phosphatidylserine on camptothecin-treated DO11.10 cells
T2 construct: Bought from R&D Systems; also called hTIM-3-Fc; hTIM-3-Fc Biotin; not shown: Fc part of the bought fusion protein

[3] = target: T3, human Tim-3 on cells (Tim-3 DO11.10 cells, a human Tim-3 expressing DO11.10 cell line) (human, UniProt Q8TDQ0 22-301); assay: flow cytometry, A488-labelled antibody on Tim-3 DO11.10 cells
T3 construct: whole, on cells; The same id is used for the Tim-3 on primary human cells in the mixed lymphocyte reaction; also called cell surface human Tim-3

[4] = target: T3, human Tim-3 on cells (Tim-3 DO11.10 …); assay: cell-based or functional assay
[5] = target: T2, human Tim-3-Fc (R&D Systems); assay: ELISA, plate coated with human Tim-3-Fc
[6] = target: T2, human Tim-3-Fc (R&D Systems); assay: MSD blocking assay, ruthenylated hTim-3-Fc binding to plate-bound galectin-9-biotin
[7] = target: T4, hTim-3-IgV-FLAG (human, UniProt Q8TDQ0 22-130, density indicating glycosylation at Asn99); assay: SPR, Biacore T200, Fab captured, hTim-3-IgV-FLAG as analyte, HBS-EP, 25 C, 1:1 binding
T4 construct: Purified from 293HEK supernatant with anti-FLAG resin; also called hTim-3-FLAG; not shown: FLAG tag

Kd [1]: 398 pM
koff [1]: 0.000927 s⁻¹
kon [1]: 2.33e+06 M⁻¹ s⁻¹
IC50 [2]: 320 pM
EC50 [3]: 90 pM
EC50 (nM), IL-2 production of hTim-3 DO11.10 cells with A20 cells and OVA peptide [4]: 3.71 nM
EC50 [5]: 20.7 pM
IC50 [6]: 5600 pM
B1: Antibody A (antibody, human IgG1, kappa, V domains shown)
VH: EVQLLESGGGLVQPGGSLRLSCAASGFTFSSYYMSWVRQAPGKGLEWVSAISGSGGSTYYADSVKGRFTISRDNSKNTLYLQMNSLRAEDTAVYYCARYARTAFDLWGQGTLVTVSS
VL: DIVMTQSPSSLSASVGDGVTITCQASQDIYNYLNWYQQKPGKAPKLLIYAASSLQSGVPSRFSGSGSGTDFTLTISSLQPEDFATYYCQQANSFPPTFGQGTKLEIKR
notes: also called anti-human Tim-3; Antiboby A

Kd [1]: 158 pM
koff [1]: 0.000106 s⁻¹
kon [1]: 675000 M⁻¹ s⁻¹
EC50 (nM), IL-2 production of hTim-3 DO11.10 cells with A20 cells and OVA peptide [4]: 6.08 nM
B2: Antibody B (antibody, human IgG1, kappa, V domains shown)
VH: B1 VH with T28S, Y32F, M34F, S54N, G56R, A100Y, R101N, A103G
VL: B1 VL with Q27E, D28A, N31G, Q55P, S56I, N92Y, S93G

Kd [7]: 7920 pM
koff [7]: 0.00286 s⁻¹
kon [7]: 362000 M⁻¹ s⁻¹
B3: Antibody A-Fab (Fab, V domains shown)
VH: B1 VH
VL: B1 VL
notes: Made by clipping Antibody A with immobilized papain; also called Fab for Antibody A

Kd [1]: 173 pM
koff [1]: 0.000138 s⁻¹
kon [1]: 797000 M⁻¹ s⁻¹
EC50 (nM), IL-2 production of hTim-3 DO11.10 cells with A20 cells and OVA peptide [4]: 3.35 nM
B4: Antibody C (antibody, human IgG1, kappa, V domains shown)
VH: B1 VH with S54N, G56K, A100Y, R101N, A103G
VL: B1 VL with A50Y, L54I, Q55V
